Test [1] has as its target T1, ITGA2-His (UniProt P17301 30-1132, limits assumed).
T1 construct: Coated on the ELISA plate at 2 ug/mL; whole entry P17301 is named; also called ITGA2 protein; not shown: His tag
T1 sequence (looked up): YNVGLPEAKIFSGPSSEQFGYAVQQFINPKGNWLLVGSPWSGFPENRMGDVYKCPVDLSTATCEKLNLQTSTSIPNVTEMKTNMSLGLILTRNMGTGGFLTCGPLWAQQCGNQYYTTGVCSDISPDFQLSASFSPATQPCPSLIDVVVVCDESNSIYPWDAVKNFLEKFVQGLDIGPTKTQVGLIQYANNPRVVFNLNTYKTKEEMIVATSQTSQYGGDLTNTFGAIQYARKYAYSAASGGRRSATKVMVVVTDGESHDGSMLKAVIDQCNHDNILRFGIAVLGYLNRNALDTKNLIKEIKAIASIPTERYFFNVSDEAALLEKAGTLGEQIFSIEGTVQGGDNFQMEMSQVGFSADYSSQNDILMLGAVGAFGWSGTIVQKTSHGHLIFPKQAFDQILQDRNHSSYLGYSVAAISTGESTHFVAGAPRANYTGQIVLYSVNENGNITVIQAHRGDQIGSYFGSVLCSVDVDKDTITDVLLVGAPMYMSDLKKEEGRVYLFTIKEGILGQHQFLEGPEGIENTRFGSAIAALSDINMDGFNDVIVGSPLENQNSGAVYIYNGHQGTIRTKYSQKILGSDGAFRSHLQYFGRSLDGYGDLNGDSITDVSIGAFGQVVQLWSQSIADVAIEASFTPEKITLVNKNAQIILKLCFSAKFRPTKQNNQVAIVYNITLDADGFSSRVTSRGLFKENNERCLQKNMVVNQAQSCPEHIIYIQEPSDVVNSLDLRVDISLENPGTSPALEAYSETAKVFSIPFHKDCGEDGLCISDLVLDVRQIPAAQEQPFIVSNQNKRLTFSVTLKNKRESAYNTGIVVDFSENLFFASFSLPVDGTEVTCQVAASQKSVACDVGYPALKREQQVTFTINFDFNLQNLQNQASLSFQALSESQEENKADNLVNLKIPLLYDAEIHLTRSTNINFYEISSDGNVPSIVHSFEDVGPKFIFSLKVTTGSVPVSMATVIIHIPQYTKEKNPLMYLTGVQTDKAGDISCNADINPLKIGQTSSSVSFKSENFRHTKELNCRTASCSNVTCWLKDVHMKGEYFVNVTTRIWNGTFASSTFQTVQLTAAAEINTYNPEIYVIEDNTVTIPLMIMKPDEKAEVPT
Description: ELISA, plate coated with 2 ug/mL ITGA2-His, anti-human IgG-Fc-HRP detection.

Test [2] has as its target T2, ITGA2 protein on the surface of human tumor cells (human, UniProt P17301 30-1181).
T2 construct: whole, on cells; Endogenously expressed; the cell line is named under assay or readout; also called Integrin alpha-2; ITGA2-positive HuCCT1 cells
T2 sequence (looked up): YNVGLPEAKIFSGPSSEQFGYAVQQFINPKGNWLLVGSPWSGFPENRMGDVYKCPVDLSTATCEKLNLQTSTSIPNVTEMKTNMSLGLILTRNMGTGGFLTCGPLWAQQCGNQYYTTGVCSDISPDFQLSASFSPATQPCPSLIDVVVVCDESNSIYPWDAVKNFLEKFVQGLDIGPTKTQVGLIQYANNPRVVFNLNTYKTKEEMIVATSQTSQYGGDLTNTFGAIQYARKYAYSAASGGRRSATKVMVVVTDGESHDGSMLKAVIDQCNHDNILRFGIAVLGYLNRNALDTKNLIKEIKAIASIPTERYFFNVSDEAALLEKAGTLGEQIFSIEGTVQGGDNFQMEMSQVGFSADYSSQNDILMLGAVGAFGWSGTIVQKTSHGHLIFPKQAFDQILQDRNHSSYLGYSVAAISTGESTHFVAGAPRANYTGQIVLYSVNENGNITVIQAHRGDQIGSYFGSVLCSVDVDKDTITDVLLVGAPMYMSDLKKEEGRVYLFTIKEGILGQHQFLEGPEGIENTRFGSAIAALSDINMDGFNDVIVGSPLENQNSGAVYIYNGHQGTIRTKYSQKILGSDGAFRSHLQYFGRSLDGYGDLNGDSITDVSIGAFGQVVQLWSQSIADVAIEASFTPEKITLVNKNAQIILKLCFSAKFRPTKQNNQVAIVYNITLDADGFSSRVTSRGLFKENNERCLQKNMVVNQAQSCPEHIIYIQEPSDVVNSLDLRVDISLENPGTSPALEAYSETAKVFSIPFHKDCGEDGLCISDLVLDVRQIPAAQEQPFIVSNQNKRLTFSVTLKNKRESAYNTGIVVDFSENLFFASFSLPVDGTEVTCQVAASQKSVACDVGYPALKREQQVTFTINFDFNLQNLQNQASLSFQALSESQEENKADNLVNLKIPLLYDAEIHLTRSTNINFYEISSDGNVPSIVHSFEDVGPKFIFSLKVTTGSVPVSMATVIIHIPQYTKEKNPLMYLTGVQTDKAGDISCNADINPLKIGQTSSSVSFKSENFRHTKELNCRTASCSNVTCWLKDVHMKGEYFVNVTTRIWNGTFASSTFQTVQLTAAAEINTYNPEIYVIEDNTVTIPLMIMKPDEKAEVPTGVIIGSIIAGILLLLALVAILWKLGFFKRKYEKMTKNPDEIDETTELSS
Description: flow cytometry on HuCCT1 cells.

B1: Humanized antibody FS002-A153-H5L2 (antibody, human IgG1, kappa, V domains shown)
VH: QVQLVQSGAEVKKPGASVKVSCKASGYTFTDYEMHWVRQAPGQGLEWMGTIDPETGGTTYAQKFQGRVTMTADTSISTAYMELSRLRSDDTAVYYCARSGYYVSSYESYAMDYWGQGTTVTVSS
VL: DIVMTQSPDSLAVSLGERVTMNCKSSQSLLNSGNQKNYLTWYQQKPGQPPKLLIYGASTRESGVPDRFSGSGSGTDFTLTISSLQAEDVAVYYCQNDYSYPFTFGGGTKLEIKR
notes: Humanized IgG1 kappa
With B1, the values for the EC50 in test [1] and in test [2] were 0.009 nM and 0.22 nM, respectively.

B2: Humanized antibody FS002-A208-H4L4 (antibody, human IgG1, kappa, V domains shown)
VH: QVQLVQSGAEVKKPGASVKVSCKASGYTFTDYEIHWVRQAPGQGLEWIGAIDPETGGTNYNQKFQGRVTLTADTSISTAYMELSRLRSDDTAVYYCSRSGYYVSNYESYAMDYWGQGTTVTVSS
VL: DIQMTQSPSSLSASVGDRVTITCRASQNVGTNVAWYQQKPEKAPKSLIYSASYRFSGVPSRFSGSGSGTDFTLTISSLQPEDFATYYCQQYNIYPLSFGGGTKLELKR
notes: Humanized IgG1 kappa
B2: the EC50 in test [1] worked out at 0.017 nM; in test [2], 0.6 nM.

B3: Humanized antibody FS002-A153-H5L5 (antibody, human IgG1, kappa, V domains shown)
VH: QVQLVQSGAEVKKPGASVKVSCKASGYTFTDYEMHWVRQAPGQGLEWMGTIDPETGGTTYAQKFQGRVTMTADTSISTAYMELSRLRSDDTAVYYCARSGYYVSSYESYAMDYWGQGTTVTVSS
VL: EIVMTQSPPTLSLSPGERVTMSCRSSQSLLNSGNQKNYLTWYQQKPGQAPRLLIYGASTRESGVPARFSGSGSGTDFTLTISSLQPEDFAVYYCQNDYSYPFTFGGGTKLEIKR
notes: Humanized IgG1 kappa
Regarding B3, the figures for the EC50 in test [1] and in test [2] were 0.022 nM and 0.48 nM, respectively.

B4: Humanized antibody FS002-A226-H4L3 (antibody, human IgG1, kappa, V domains shown)
VH: QVQLVQSGAEVKKPGASVKVSCKASGYTFTDYEIHWVRQAPGQGLEWIGAIDPETGGTNYNQKFQGRVTLTADTSISTAYMELSRLRSDDTAVYYCSRSGYYVSNYESYAMDYWGQGTTVTVSS
VL: DIQITQSPSSMSASVGDRVTITCKASQDIKSYLSWYQQKPGKAPKLLIYDTSNLASGVPSRFSGSGSGTDYTLTISSLQPEDFATYYCQQWSSYPFTFGGGTKLEIKR
notes: Humanized IgG1 kappa
Take B4: the figures for the EC50 in test [1] and in test [2] were 0.024 nM and 0.533 nM, respectively.

B5: Humanized antibody FS002-A153-H5L1 (antibody, human IgG1, kappa, V domains shown)
VH: QVQLVQSGAEVKKPGASVKVSCKASGYTFTDYEMHWVRQAPGQGLEWMGTIDPETGGTTYAQKFQGRVTMTADTSISTAYMELSRLRSDDTAVYYCARSGYYVSSYESYAMDYWGQGTTVTVSS
VL: DIVMTQSPDSLAVSLGERVTMSCKSSQSLLNSGNQKNYLTWYQQKPGQPPKLLIYGASTRESGVPDRFTGSGSGTDFTLTISSLQAEDVAVYYCQNDYSYPFTFGGGTKLEIKR
notes: Humanized IgG1 kappa
B5: the EC50 in test [1] stood at 0.027 nM; in test [2], 0.58 nM.

B6: Humanized antibody FS002-A208-H5L4 (antibody, human IgG1, kappa, V domains shown)
VH: QVQLVQSGAEVKKPGASVKVSCKASGYTFTDYEIHWVRQAPGQGLEWMGAIDPETGGTNYAQKFQGRVTMTADTSISTAYMELSRLRSDDTAVYYCSRSGYYVSNYESYAMDYWGQGTTVTVSS
VL: DIQMTQSPSSLSASVGDRVTITCRASQNVGTNVAWYQQKPEKAPKSLIYSASYRFSGVPSRFSGSGSGTDFTLTISSLQPEDFATYYCQQYNIYPLSFGGGTKLELKR
notes: Humanized IgG1 kappa
As to B6, the EC50 in test [1] was 0.018 nM; in test [2], 0.627 nM.

B7: Humanized antibody FS002-A153-H4L2 (antibody, human IgG1, kappa, V domains shown)
VH: QVQLVQSGAEVKKPGASVKVSCKASGYTFTDYEMHWVRQAPGQGLEWMGTIDPETGGTTYAQKFQGRVTLTADTSISTAYMELSRLRSDDTAVYYCSRSGYYVSSYESYAMDYWGQGTTVTVSS
VL: DIVMTQSPDSLAVSLGERVTMNCKSSQSLLNSGNQKNYLTWYQQKPGQPPKLLIYGASTRESGVPDRFSGSGSGTDFTLTISSLQAEDVAVYYCQNDYSYPFTFGGGTKLEIKR
notes: Humanized IgG1 kappa
Consider B7, for which the results for the EC50 in test [1] and in test [2] were 0.011 nM and 0.313 nM, respectively.

B8: Humanized antibody FS002-A208-H3L4 (antibody, human IgG1, kappa, V domains shown)
VH: QVQLVQSGAEVKKPGASVKVSCKASGYTFTDYEIHWVRQAPGQGLEWIGAIDPETGGTNYNQKFNDRVTLTADKSISTAYMELSRLRSDDTAVYYCSRSGYYVSNYESYAMDYWGQGTTVTVSS
VL: DIQMTQSPSSLSASVGDRVTITCRASQNVGTNVAWYQQKPEKAPKSLIYSASYRFSGVPSRFSGSGSGTDFTLTISSLQPEDFATYYCQQYNIYPLSFGGGTKLELKR
notes: Humanized IgG1 kappa
Take B8: the concentration giving a half-maximal response (EC50) is 0.022 nM in test [1] and 0.587 nM in test [2].

B9: Humanized antibody FS002-A153-H5L4 (antibody, human IgG1, kappa, V domains shown)
VH: QVQLVQSGAEVKKPGASVKVSCKASGYTFTDYEMHWVRQAPGQGLEWMGTIDPETGGTTYAQKFQGRVTMTADTSISTAYMELSRLRSDDTAVYYCARSGYYVSSYESYAMDYWGQGTTVTVSS
VL: DIVMTQSPPTLSVSPGERVTMSCKSSQSLLNSGNQKNYLTWYQQKPGQAPRLLIYGASTRESGVPDRFSGSGSGTDFTLTISSLQPEDFAVYYCQNDYSYPFTFGGGTKLEIKR
notes: Humanized IgG1 kappa
Take B9: the concentration for a half-maximal effect (EC50) worked out at 0.024 nM in test [1] and 0.487 nM in test [2].

B10: Humanized antibody FS002-A226-H3L4 (antibody, human IgG1, kappa, V domains shown)
VH: QLQLVQSGAEVKKPGASVKVSCKASGYTFTDYEIHWVRQAPGQGLEWIGAIDPETGGTNYNQKFNDRVTLTADTSISTAYMELSRLRSDDTAVYYCSRSGYYVSNYESYAMDYWGQGTTVTVSS
VL: DIQLTQSPSSLSASVGDRVTITCRASQDIKSYLSWYQQKPGKAPKLLIYDTSNLASGVPSRFSGSGSGTDFTLTISSLQPEDFATYYCQQWSSYPFTFGGGTKLEIKR
notes: Humanized IgG1 kappa
As to B10, the EC50 is 0.023 nM in test [1] and 0.28 nM in test [2].

B11: Humanized antibody FS002-A153-H3L3 (antibody, human IgG1, kappa, V domains shown)
VH: QVQLVQSGAEVKKPGASVKLSCKASGYTFTDYEMHWVRQAPGQGLEWIGTIDPETGGTTYNQKFQGRVTLTADTSISTAYMELSRLRSDDTAVYYCSRSGYYVSSYESYAMDYWGQGTTVTVSS
VL: DIVMTQSPDSLAVSLGERATINCKSSQSLLNSGNQKNYLTWYQQKPGQPPKLLIYGASTRESGVPDRFSGSGSGTDFTLTISSLQAEDVAVYYCQNDYSYPFTFGGGTKLEIKR
notes: Humanized IgG1 kappa
B11: the values for the EC50 in test [1] and in test [2] were 0.014 nM and 0.42 nM, respectively.

B12: Chimeric mouse antibody FS002-A103 (antibody, human IgG1, kappa, V domains shown)
VH: QVQLQQSGAELVRPGASVTLSCKASGYTFTDYEMHWVKQTPVHGLEWIGVIDPETGGTTYNQKFNDKATLTADKSSSTAYMDLRSLTSEDSAVYYCSRSGYYVSSYESYAMDYWGQGTSVTVSS
VL: DIVMTQSPKSMSMSVGERVTLSCKASENVGTYVSWYQQKPEQSPKLLIYGASTRESGVPDRFTGSGSGTDFTLTISSVQAEDLAVYYCQNDYSYPFTFGSGTKLEIKR
notes: Chimeric; expressed in ExpiCHO-S
Consider B12, for which the EC50 in test [1] came out at 0.017 nM; in test [2] it was 0.633 nM.

For the origin of these results see patent publication EP4722245A1, “ANTIBODY TARGETING ITGA2, ANTIBODY DRUG CONJUGATE THEREOF, AND USE” (Foreseen Technology (Beijing) Co., Ltd., priority 2023, dated 2024).
